B1: N-terminal His-tagged recombinant Ad3 fibre knob (His-Ad3K) (domain or fragment)
chain: NSIALKNNTLWTGPKPEANCIIEYGKQNPDSKLTLILVKNGGIVNGYVTLMGASDYVNTLFKNKNVSINVELYFDATGHILPDSSSLKTDLELKYKQTADFSARGFMPSTTAYPFVLPNAGTHNENYIFGQCYYKASDGALFPLEVTVMLNKRLPDSRTSYVMTFLWSLNAGLAPETTQATLITSPFTFSYIREDD
notes: human adenovirus serotype 3 (HAd3) fibre protein, knob, Asn124 to Asp319 of the full-length protein, GenBank ABB17809.1; The printed GenBank entry holds; also called HAd3 fibre knob; trimeric knob; source: E. coli Rosetta(DE3)pLysS, pETDuet-1; purified (His GraviTrap, Superdex 200); also co-expressed with MBP-DSG2 constructs, in lysate; not shown: His6, N-terminal, kept
B2: DSG2 EC2-3 after MBP removal (digested DSG2 EC2-3, bacterial) (domain or fragment, human, UniProt Q14126 149-386, looked up)
chain: VLDINDNEPVFTQDVFVGSVEELSAAHTLVMKINATDADEPNTLNSKISYRIVSLEPAYPPVFYLNKDTGEIYTTSVTLDREEHSSYTLTVEARDGNGEVTDKPVKQAQVQIRILDVNDNIPVVENKVLEGMVEENQVNVEVTRIKVFDADEIGSDNWLANFTFASGNEGGYFHIETDAQTNEGIVTLIKEVDYEEMKNLDFSVIVANKAAFHKSIRSKYKPTPIPIKVKVKNVKEGI
notes: Theoretical mass 27.8 kDa after TEV cleavage; not glycosylated (bacterial); also called MBP-free EC2-3; source: E. coli Rosetta(DE3)pLysS, co-expressed with His-Ad3K; co-purified (His GraviTrap), TEV-cleaved, second His GraviTrap, Superdex 200; not shown: MBP, N-terminal, cleaved

How the values were obtained:
[1] = target: the molecule itself; assay: SEC-MALS; 50 uL at 1 mg/mL on Superdex 200 Increase 10/300 GL, 150 mM NaCl, 3 mM CaCl2, 10 mM Tris-Cl pH 8.0, 0.5 mL/min; co-expressed and co-purified MBP-free complex, and His-Ad3K alone
[2] = target: B1; assay: AUC; sedimentation velocity (headed SE-AUC), 42,000 rpm, 20 °C, 3 mM CaCl2, 10 mM Tris pH 8.0, 150 mM NaCl; c(s) by SedFit; co-purified MBP-free complex, and His-Ad3K alone; two concentrations; conditions: both partners purified
[3] = target: B1; assay: SEC-MALS; 50 uL at 1 mg/mL on Superdex 200 Increase 10/300 GL, 150 mM NaCl, 3 mM CaCl2, 10 mM Tris-Cl pH 8.0, 0.5 mL/min; co-expressed and co-purified MBP-free complex, and His-Ad3K alone; conditions: both partners purified

Row | Binder | stoichiometry N [1] | stoichiometry N [2] | stoichiometry N [3]
1 | B1 | 3 | – | –
2 | B2 | – | 1 receptor per trimeric knob | 1 DSG2 EC2-3 per His-Ad3K trimer
